{"source": "patent US20180044391A1", "about": "(DEUTSCHES KREBSFORSCHUNGSZENTRUM, published 2018)", "biological_target": "T1, CD19 (UniProt P15391 20-556, limits assumed)", "T1 sequence (looked up)": "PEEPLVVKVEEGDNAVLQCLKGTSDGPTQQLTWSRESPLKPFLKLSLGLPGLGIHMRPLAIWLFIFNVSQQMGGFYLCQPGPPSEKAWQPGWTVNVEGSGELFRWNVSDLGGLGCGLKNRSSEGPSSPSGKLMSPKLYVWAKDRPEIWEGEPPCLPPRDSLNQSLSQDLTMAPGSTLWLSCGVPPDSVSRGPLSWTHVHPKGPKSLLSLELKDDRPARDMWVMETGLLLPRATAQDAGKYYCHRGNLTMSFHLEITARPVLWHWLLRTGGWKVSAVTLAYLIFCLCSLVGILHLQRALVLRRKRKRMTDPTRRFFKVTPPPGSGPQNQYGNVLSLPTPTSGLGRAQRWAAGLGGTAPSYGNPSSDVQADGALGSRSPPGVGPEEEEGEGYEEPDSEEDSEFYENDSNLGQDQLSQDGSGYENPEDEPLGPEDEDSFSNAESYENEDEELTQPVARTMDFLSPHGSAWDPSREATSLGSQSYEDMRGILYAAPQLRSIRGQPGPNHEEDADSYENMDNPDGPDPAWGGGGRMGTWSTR", "assay": "cell-based or functional assay", "data": [{"binder": "αCD19-SDIE (antibody, human IgG1, V domains shown) VH: EVQLQQSGPELIKPGASVKMSCKASGYTFTSYVMHWVKQKPGQGLEWIGYINPYNDGTKYNEKFKGKATLTSDKSSSTAYMELSSLTSEDSAVYYCARGTYYYGSRVFDYWGQGTTLTVSS VL: DIVMTQAAPSIPVTPGESVSISCRSSKSLLNSNGNTYLYWFLQRPGQSPQLLIYRMSNLASGVPDRFSGSGSGTAFTLRISRVEAEDVGVYYCMQHLEYPFTFGAGTKLELK", "values": [{"measurement": "inhibition of proliferation of NALM16 cells with PBMC (3H-thymidine uptake, 2 days)", "result": "~60", "unit": "%"}]}]}
